The chains are these.
B1: TPTE2 peptide 92-107 (Phosphatidylinositol 3,4,5-trisphosphate 3-phosphatase TPTE2), 16-mer library wild type / TLN1 PTB (TLN1 Phosphotyrosine-binding (PTB) domain, residues 309-401) (parent complex)
chain 1: LADLIFTDSKLYIPLE
chain 2: GVSFFLVKEKMKGKNKLVPRLLGITKECVMRVDEKTKEVIQEWNLTNIKRWAASPKSFTLDFGDYQDGYYSVQTTEGEQIAQLIAGYIDIILK

Variants of B1 are the subject of the assay. Nature of the assay: proteomic peptide phage display deep mutational scan (ProP-PD DMS): M13 P8 16-mer library selected against immobilised GST-tagged bait for four days (rounds), NGS of the eluted pools per day and pseudo-replica; bait immobilised on MaxiSorp plates (10 µg), library pre-cleared on GST, 2 h binding at 4 °C, five washes; one round per day, days 1-4; value from days 2 and 3.
For chain 1 LADLEFTDSKLYIPLE, the screen value is 0.000204 average fractional NGS count over selection days 2 and 3 (reads of this peptide / all reads for the bait, averaged over …. Regarding chain 1 LADLRFTDSKLYIPLE, the screen value was 0.0019 average fractional NGS count over selection days 2 and 3 (reads of this peptide / all reads for the bait, averaged over ….

As for chain 1 LADLYFTDSKLYIPLE, the screen value is 0.00125 average fractional NGS count over selection days 2 and 3 (reads of this peptide / all reads for the bait, averaged over …. For chain 1 LADLGFTDSKLYIPLE, the screen value was 0.000313 average fractional NGS count over selection days 2 and 3 (reads of this peptide / all reads for the bait, averaged over …. As to chain 1 LADLIFTDSFLYIPLE, the screen value is 0.000223 average fractional NGS count over selection days 2 and 3 (reads of this peptide / all reads for the bait, averaged over ….

For the variant chain 1 LADLIFTDSYLYIPLE, the screen value is 0.00128 average fractional NGS count over selection days 2 and 3 (reads of this peptide / all reads for the bait, averaged over …. Turning to chain 1 LADLIFTDSALYIPLE, the screen value is 0.0017 average fractional NGS count over selection days 2 and 3 (reads of this peptide / all reads for the bait, averaged over …. With chain 1 LADLIFTDSMLYIPLE, the screen value is 0.0107 average fractional NGS count over selection days 2 and 3 (reads of this peptide / all reads for the bait, averaged over …. For the variant chain 1 LADLIFTDSPLYIPLE, the screen value was 0.000281 average fractional NGS count over selection days 2 and 3 (reads of this peptide / all reads for the bait, averaged over …. For the variant chain 1 LADLIFTDSHLYIPLE, the screen value was 0.00033 average fractional NGS count over selection days 2 and 3 (reads of this peptide / all reads for the bait, averaged over …. As for chain 1 LADLIFTDSRLYIPLE, the screen value was 0.00219 average fractional NGS count over selection days 2 and 3 (reads of this peptide / all reads for the bait, averaged over …. As for chain 1 LADLIFTDSNLYIPLE, the figure is 0.000537 average fractional NGS count over selection days 2 and 3 (reads of this peptide / all reads for the bait, averaged over …; as for chain 1 LADLIFTDSLLYIPLE, 0.000166 average fractional NGS count over selection days 2 and 3 (reads of this peptide / all reads for the bait, averaged over …; as for chain 1 LADLIFTDSELYIPLE, 0.00277 average fractional NGS count over selection days 2 and 3 (reads of this peptide / all reads for the bait, averaged over …. On to chain 1 LADLIFTDSKLYIPLH, for which the screen value was 0.00501 average fractional NGS count over selection days 2 and 3 (reads of this peptide / all reads for the bait, averaged over ….

Regarding chain 1 LADLIFTDSKLYIPLL, the screen value is 0.000229 average fractional NGS count over selection days 2 and 3 (reads of this peptide / all reads for the bait, averaged over …. On to chain 1 LADLIFTDSKLYIPLG, for which the screen value is 0.000982 average fractional NGS count over selection days 2 and 3 (reads of this peptide / all reads for the bait, averaged over ….

Take chain 1 LADLIFTDSKLYIPLV: the screen value is 0.0105 average fractional NGS count over selection days 2 and 3 (reads of this peptide / all reads for the bait, averaged over …. Take chain 1 LADLIFTDSKLYIPLQ: the screen value was 0.000507 average fractional NGS count over selection days 2 and 3 (reads of this peptide / all reads for the bait, averaged over …. As to chain 1 LADLIFTDSKLYIPLA, the screen value is 0.00143 average fractional NGS count over selection days 2 and 3 (reads of this peptide / all reads for the bait, averaged over ….

In the case of chain 1 LADLIFTDSKLYIPLS, the screen value is 0.000917 average fractional NGS count over selection days 2 and 3 (reads of this peptide / all reads for the bait, averaged over ….

Regarding chain 1 LADLIFTDSKLYIPLF, the screen value was 0.000466 average fractional NGS count over selection days 2 and 3 (reads of this peptide / all reads for the bait, averaged over …. On to chain 1 LADLIFTDSKLYIPLN, for which the screen value was 0.00152 average fractional NGS count over selection days 2 and 3 (reads of this peptide / all reads for the bait, averaged over …. Consider chain 1 LADLIFTDSKLYIPLM, for which the screen value is 0.0125 average fractional NGS count over selection days 2 and 3 (reads of this peptide / all reads for the bait, averaged over …. Turning to chain 1 LDDLIFTDSKLYIPLE, the screen value is 0.0012 average fractional NGS count over selection days 2 and 3 (reads of this peptide / all reads for the bait, averaged over …. Next, chain 1 LIDLIFTDSKLYIPLE: 0.000259 average fractional NGS count over selection days 2 and 3 (reads of this peptide / all reads for the bait, averaged over …; chain 1 LHDLIFTDSKLYIPLE: 0.00143 average fractional NGS count over selection days 2 and 3 (reads of this peptide / all reads for the bait, averaged over …. In the case of chain 1 LEDLIFTDSKLYIPLE, the screen value was 0.000377 average fractional NGS count over selection days 2 and 3 (reads of this peptide / all reads for the bait, averaged over …. Consider chain 1 LGDLIFTDSKLYIPLE, for which the screen value was 0.00214 average fractional NGS count over selection days 2 and 3 (reads of this peptide / all reads for the bait, averaged over …. On to chain 1 LKDLIFTDSKLYIPLE, for which the screen value is 0.000711 average fractional NGS count over selection days 2 and 3 (reads of this peptide / all reads for the bait, averaged over …. Next, chain 1 LTDLIFTDSKLYIPLE: 0.00695 average fractional NGS count over selection days 2 and 3 (reads of this peptide / all reads for the bait, averaged over ….

chain 1 LPDLIFTDSKLYIPLE: the screen value was 0.000416 average fractional NGS count over selection days 2 and 3 (reads of this peptide / all reads for the bait, averaged over …. On to chain 1 LADLIFTDSKLYIGLE, for which the screen value is 0.000463 average fractional NGS count over selection days 2 and 3 (reads of this peptide / all reads for the bait, averaged over …. Consider chain 1 LADLIFTDSKLWIPLE, for which the screen value was 0.000296 average fractional NGS count over selection days 2 and 3 (reads of this peptide / all reads for the bait, averaged over ….

Take chain 1 LADLIFTDSKLFIPLE: the screen value was 0.00012 average fractional NGS count over selection days 2 and 3 (reads of this peptide / all reads for the bait, averaged over …. With chain 1 LADLIFTNSKLYIPLE, the screen value is 0.00152 average fractional NGS count over selection days 2 and 3 (reads of this peptide / all reads for the bait, averaged over ….

Consider chain 1 LADLIFTASKLYIPLE, for which the screen value is 0.000152 average fractional NGS count over selection days 2 and 3 (reads of this peptide / all reads for the bait, averaged over …. For the variant chain 1 LADLIFTPSKLYIPLE, the screen value is 0.000129 average fractional NGS count over selection days 2 and 3 (reads of this peptide / all reads for the bait, averaged over …. Next, chain 1 LADLIFTYSKLYIPLE: 0.000841 average fractional NGS count over selection days 2 and 3 (reads of this peptide / all reads for the bait, averaged over …; chain 1 LADLIFTQSKLYIPLE: 0.000205 average fractional NGS count over selection days 2 and 3 (reads of this peptide / all reads for the bait, averaged over …. Turning to chain 1 LADLIWTDSKLYIPLE, the screen value was 0.000583 average fractional NGS count over selection days 2 and 3 (reads of this peptide / all reads for the bait, averaged over …. chain 1 LADLIFTDNKLYIPLE: the screen value is 0.00167 average fractional NGS count over selection days 2 and 3 (reads of this peptide / all reads for the bait, averaged over ….

In the case of chain 1 LADLIFWDSKLYIPLE, the screen value was 0.000447 average fractional NGS count over selection days 2 and 3 (reads of this peptide / all reads for the bait, averaged over …. chain 1 LADLIFHDSKLYIPLE: the screen value is 0.000516 average fractional NGS count over selection days 2 and 3 (reads of this peptide / all reads for the bait, averaged over …. As for chain 1 LADLIFYDSKLYIPLE, the figure is 0.000282 average fractional NGS count over selection days 2 and 3 (reads of this peptide / all reads for the bait, averaged over …; as for chain 1 LADLIFVDSKLYIPLE, 0.000833 average fractional NGS count over selection days 2 and 3 (reads of this peptide / all reads for the bait, averaged over …. Consider chain 1 LANLIFTDSKLYIPLE, for which the screen value is 0.000465 average fractional NGS count over selection days 2 and 3 (reads of this peptide / all reads for the bait, averaged over …. chain 1 LAQLIFTDSKLYIPLE: the screen value is 0.000216 average fractional NGS count over selection days 2 and 3 (reads of this peptide / all reads for the bait, averaged over …. In the case of chain 1 LASLIFTDSKLYIPLE, the screen value is 0.000257 average fractional NGS count over selection days 2 and 3 (reads of this peptide / all reads for the bait, averaged over …. In the case of chain 1 LATLIFTDSKLYIPLE, the screen value was 0.00148 average fractional NGS count over selection days 2 and 3 (reads of this peptide / all reads for the bait, averaged over …. chain 1 LAPLIFTDSKLYIPLE: the screen value is 0.000181 average fractional NGS count over selection days 2 and 3 (reads of this peptide / all reads for the bait, averaged over …. For chain 1 LAGLIFTDSKLYIPLE, the screen value was 0.000214 average fractional NGS count over selection days 2 and 3 (reads of this peptide / all reads for the bait, averaged over …. Take chain 1 LADLIFTDSKMYIPLE: the screen value is 0.000677 average fractional NGS count over selection days 2 and 3 (reads of this peptide / all reads for the bait, averaged over ….

For the variant chain 1 LADLIFTDSKVYIPLE, the screen value was 0.00254 average fractional NGS count over selection days 2 and 3 (reads of this peptide / all reads for the bait, averaged over …. With chain 1 LADLIFTDSKHYIPLE, the screen value was 0.000165 average fractional NGS count over selection days 2 and 3 (reads of this peptide / all reads for the bait, averaged over ….

Consider chain 1 LADLIFTDSKGYIPLE, for which the screen value was 0.000473 average fractional NGS count over selection days 2 and 3 (reads of this peptide / all reads for the bait, averaged over ….

These data come from article PMC12102759 (2025).
